Experimental data published in patent publication US6949506B2, “Relaxin-like factor and methods and uses thereof” (BAS Medical, Inc., priority 1995, dated 2005).
Positions of bridges follow the written chain, without caps; N, C: chain ends. Chains are numbered I, II in the order given. No end group written: not given here.

What was measured:
[1] = molecular target: T1, RLF receptor (uterus) (Mus musculus, UniProt Q91ZZ5); assay: Binding assay, mouse uterus crude membranes, hRLF tracer
T1 construct: brain, and uterus (of estrogen primed mice); from tissue; host or cells: uterus of estrogen-primed mice, crude membranes
T1 sequence (Q91ZZ5 whole entry): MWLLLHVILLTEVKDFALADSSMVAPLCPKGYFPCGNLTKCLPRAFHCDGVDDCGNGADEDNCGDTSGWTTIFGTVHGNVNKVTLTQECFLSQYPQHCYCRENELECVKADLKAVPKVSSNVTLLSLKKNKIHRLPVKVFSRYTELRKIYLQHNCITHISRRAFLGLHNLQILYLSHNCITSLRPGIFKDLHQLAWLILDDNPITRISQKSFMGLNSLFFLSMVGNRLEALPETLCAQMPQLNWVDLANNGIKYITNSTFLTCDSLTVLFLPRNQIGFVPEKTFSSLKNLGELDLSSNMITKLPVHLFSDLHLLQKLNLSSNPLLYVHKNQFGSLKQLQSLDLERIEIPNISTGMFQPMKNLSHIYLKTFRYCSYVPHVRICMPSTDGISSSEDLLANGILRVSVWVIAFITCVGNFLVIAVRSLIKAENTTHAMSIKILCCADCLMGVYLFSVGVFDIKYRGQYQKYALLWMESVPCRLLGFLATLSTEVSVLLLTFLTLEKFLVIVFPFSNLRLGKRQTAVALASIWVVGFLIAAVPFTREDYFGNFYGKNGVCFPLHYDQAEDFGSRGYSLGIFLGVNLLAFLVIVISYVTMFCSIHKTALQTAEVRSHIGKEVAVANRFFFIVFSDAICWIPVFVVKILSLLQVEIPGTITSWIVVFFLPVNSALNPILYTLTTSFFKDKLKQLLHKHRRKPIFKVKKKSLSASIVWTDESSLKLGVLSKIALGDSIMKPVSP
Protocol: (§1) Relaxin-binding assays were performed as described in Yang, et al., 1992, Endocrinology 130:179-185 and Büllesbach, et al., 1994, Endocrine. 2:1115-1120, using crude membrane preparations of mouse tissue. Mouse brains of 2 mice were collected into 15 ml of chilled buffer (25 mM HEPES, 0.14 M NaCl, 5.7 mM KCI, 0.2 mM phenylmethylsulfonyl-fluoride, and 80 mg/ml soybean trypsin inhibitor, pH 7.5) supplemented with sucrose (0.25 M, final concentration). The tissue was homogenized on ice for 10 s with a Polytron homogenizer (Brinlmann, Westbury, N.Y.) at setting 5. The homogenate was centrifuged at 700 rpm for 10 min at 4° C. and the supernatants were recentrifuged at 10,000×g for 1 h. The pellet was resuspended in 15 ml of ice cold binding buffer, 25 mM HEPES, 0.14 M NaCl, 5.7 mM KCI, 0.2 mM phenylmethylsulfonylfluoride, and 80 mg/ml soybean trypsin inhibitor, pH 7.5, supplemented with 1% bovine serum albumin, and centrifuged for 1 h at 10,000×g. […] The supernatant was discarded, the tip of the vial cut and counted in a γ-counter. Nonspecific binding was determined in the presence of 2 μl/ml of unlabeled competitor (0.33 μM). […]
(§2) Tissue specificity was determined using crude membrane preparations of leg muscles, kidneys, liver. brain, and uterus (of estrogen primed mice). […] Binding was based on protein concentration determined by Lowry. […]

[2] = molecular target: T2, RLF receptor (brain) (Mus musculus, UniProt Q91ZZ5); assay: Binding assay, mouse brain crude membranes, hRLF tracer
T2 construct: from tissue; host or cells: mouse brain, crude membranes
T2 sequence (Q91ZZ5 whole entry): as above
Protocol: as §1, §2

[3] = molecular target: T3, uterine relaxin receptor (Mus musculus, UniProt Q6R6I7); assay: Relaxin-binding assay, mouse uterus crude membranes, porcine relaxin tracer
T3 construct: brain, and uterus (of estrogen primed mice); from tissue; host or cells: uterus of estrogen-primed mice, crude membranes
T3 sequence (Q6R6I7 1-758): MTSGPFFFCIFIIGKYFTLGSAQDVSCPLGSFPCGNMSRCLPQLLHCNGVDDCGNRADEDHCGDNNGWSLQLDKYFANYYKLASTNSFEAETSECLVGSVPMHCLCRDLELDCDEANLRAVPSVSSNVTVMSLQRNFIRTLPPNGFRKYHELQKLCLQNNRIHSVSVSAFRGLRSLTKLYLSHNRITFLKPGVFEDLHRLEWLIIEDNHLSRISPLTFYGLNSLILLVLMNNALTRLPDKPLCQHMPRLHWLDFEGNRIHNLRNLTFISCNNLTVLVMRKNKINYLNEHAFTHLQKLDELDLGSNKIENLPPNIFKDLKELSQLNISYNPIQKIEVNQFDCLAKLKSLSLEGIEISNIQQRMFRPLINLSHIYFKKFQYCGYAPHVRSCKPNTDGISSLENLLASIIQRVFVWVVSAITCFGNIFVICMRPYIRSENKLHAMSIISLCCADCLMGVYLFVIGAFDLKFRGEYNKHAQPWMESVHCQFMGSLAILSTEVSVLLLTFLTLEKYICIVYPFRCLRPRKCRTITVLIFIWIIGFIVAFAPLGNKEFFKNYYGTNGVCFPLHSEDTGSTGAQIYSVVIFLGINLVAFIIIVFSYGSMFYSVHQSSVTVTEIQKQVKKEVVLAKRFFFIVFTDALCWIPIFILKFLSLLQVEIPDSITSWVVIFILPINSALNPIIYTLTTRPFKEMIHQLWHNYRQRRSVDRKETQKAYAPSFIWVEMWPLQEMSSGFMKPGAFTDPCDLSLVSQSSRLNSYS
Protocol: as §1
Tissue specificity was determined using crude membrane preparations of leg muscles, kidneys, liver. brain, and uterus (of estrogen primed mice). […] Binding was based on protein concentration determined by Lowry.

[4] = test system: collagen expression, rheumatoid synovial fibroblasts (Strain No. RSF64); assay: Inhibition of collagen expression by synovial fibroblasts; format: cell-based, human; settings: 100 ng/ml (each); TGF-β-treated fibroblasts
Protocol: The method for detecting and measuring collagen formation in the presence of relaxin described in Unemori and Amento, 1990, J. Biol. Chem. 265:10681-685 has been modified as follows to determine the ability of RLF, in vitro, to modulate the expression of collagen. Materials and Methods. Rheumatoid synovial fibroblasts (Strain No. […] The cells were simultaneously biosynthetically labelled with ^3H=[…] μCi/ml) in the presence of ascorbate and BAPN. After 24 hours, the conditioned media were collected and electrophoresed on 4-12% polyacrylamide gels (NOVEX) under reducing conditions. Gels were enhanced, dried, and exposed to X-ray films for 1-2 weeks. Collagen bands were identified on the X-ray films as bacterial collagenase-sensitive, proline-incorporating bands between 95-200 kDa. Band density was quantified by scanning densitometry and used as estimates of collagen expression.

[5] = test system: procollagenase expression, rheumatoid synovial fibroblasts (Strain No. RSF112); assay: Stimulation of procollagenase expression by synovial fibroblasts (gelatin zymography); format: cell-based, human
Excerpt: A method for detecting and measuring procollagenase formation is described in Unemori, et al., 1991, J. Biol. Chem. 266:23477-482. Such method was modified to measure the expression of procollagenase in the presence of RLF as follows: Materials And Methods. Rheumatoid synovial fibroblasts (Strain No. […] Conditioned media were collected and an aliquot analyzed by gelatin zymography. Procollagenase was identified as a […] doublet at 52/57 kDa. The intensity of the doublet (i.e., the amount of procollagenase expressed, was quantified by scanning densitometry.

In the case of “RLF: synthesized human relaxin-like factor, two-chain peptide (A and B chain, SEQ ID NOS:3 and 4), three disulfide links (alpha AAATNPARYCCLSGCTQQDLLTLCPY; beta PTPEMREKLCGHHFVRALVRVCGGPRWSTEA; disulfide I:11-II:10; also: two further disulfide bonds, places not given here)”, the “50% Binding” value [1] is reported as 0.3 ng, the “50% Binding” value [2] is reported as 0.3 ng and the “recognition by the uterine relaxin receptor” value [3] is reported as “barely recognizes”. For the same substance, the “50% Binding” value ([3]; tracer pRLX) was 10000 ng, the “decrease of TGF-β-stimulated collagen expression” value [4] was 17% and the “stimulation of procollagenase expression” value ([5]; 1 ng/ml) was 0 fold. The “stimulation of procollagenase expression” value ([5]; 10 ng/ml) was 2.0 fold and the “stimulation of procollagenase expression” value ([5]; 100 ng/ml) was 4.2 fold.
